Measurements reported in the supplement of paper PMC12764529.
± gives the half width of the 95% confidence interval.

Key:
[1] = folding stability dG unfold from chymotrypsin proteolysis; higher = more stable
Summary of the method: (§1)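 Mini-proteins designed to be under 80 residues and free of cysteine were carried in a PA-tagged cDNA display construct and digested with trypsin and with chymotrypsin. Each protease was applied at 11 threefold-diluted concentrations, alongside a no-protease condition, before sequencing. K50 came from Bayesian fitting of the sequencing counts, and unfolding free energy was obtained by comparing it with a sequence-predicted unfolded-state K50 and a shared folded-state K50, for each protease separately or for both together. Designs were retained only if their AlphaFold2 dimer inter-PAE exceeded 15.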

[2] = folding stability dG unfold (combined trypsin and chymotrypsin); higher = more stable
Summary of the method: as §1

[3] = folding stability dG unfold from trypsin proteolysis; higher = more stable
Summary of the method: as §1

Sequence | folding stability dG unfold [1] | folding stability dG unfold [2] | folding stability dG unfold [3]
SAGGSMKIKVEYEELPNGKMVIRIDIPPEENNMTPEQVETIAKEIAEEFPNVKVETTPGSIWIRVPSAGGSA [r2_256_TrROS] | 1.21 ± 0.2 kcal/mol | 1.24 ± 0.16 kcal/mol | 1.38 ± 0.1 kcal/mol
SAGGSMKITKIEIEKLPNGEYKITITKDENGNITVTVTNKNGKKKTITLKVKPEDVEEVLKELLKKSAGGSA [r2_298_TrROS_Hall] | 3.01 ± 0.06 kcal/mol | 2.73 ± 0.1 kcal/mol | 1.6 ± 0.051 kcal/mol
SAGGSMKIVKIEKIDLAKLKPGDIIEVKLENGEIYRIRIEKNEDGKYTVYIYNKNGELVEEFEFDVSAGGSA [r2_323_TrROS_Hall] | 4.25 ± 0.034 kcal/mol | 3.84 ± 0.097 kcal/mol | 2.27 ± 0.12 kcal/mol
SAGGSMKLTTTTPDGKPFEADVTEYPTFYKITFKVGNKEYTLLANPSTNTVDGNVDGFPFKLKLNPSAGGSA [r2_194_TrMRF] | 1.25 ± 0.18 kcal/mol | 1.25 ± 0.18 kcal/mol | 1.28 ± 0.1 kcal/mol
SAGGSMKPSKVTEVTHPDGTRFTVTEYPEVPLLTLTIERPETGTTTTVKTKSREEAEKVLAELVASSAGGSA [r2_70_JUSTAS] | 0.306 ± 0.16 kcal/mol | 0.596 ± 0.11 kcal/mol | 0.696 ± 0.068 kcal/mol
SAGGSMKPVKKTIVILKPSSVTEEEVKEEVVEKAKELGLKVKPIRTEVYPLPDYYLVVVEVEIEVPPESAGG [r13_351_TrMRF] | 1.24 ± 0.072 kcal/mol | 1.38 ± 0.21 kcal/mol | 1.56 ± 0.11 kcal/mol
SAGGSMKTITDPGNLSEEEIKKILSKFPPNTTVTIEFPDATHTVTLNPDKIEISRDPSYPNFRITITISSAG [r5_373_JUSTAS] | 2.01 ± 0.036 kcal/mol | 1.72 ± 0.1 kcal/mol | 1.31 ± 0.029 kcal/mol
SAGGSMKVEVTVTETSTLGDGTRTYTVAVLIDGTPLTFTFPFTSEEEFREAVEEWAKERGVEITLTPSSAGG [r13_750_JUSTAS] | 4.54 ± 0.049 kcal/mol | 4.25 ± 0.14 kcal/mol | 3.7 ± 0.084 kcal/mol
SAGGSMPETVKVRVRNADGSLLTLEITRDADGELTVTLEVDGKTVELSLEELEKLPPGVEVVEVEPSAGGSA [r2_431_TrROS_Hall] | 2.44 ± 0.087 kcal/mol | 2.26 ± 0.18 kcal/mol | 1.9 ± 0.087 kcal/mol
SAGGSMPKGQEVKIEIEHRRHNGRRYWRVSVEVPNGKDIEIPFDDPEEMPPEMKKQIENLAKEIVKSAGGSA [r2_17_TrROS] | 1.11 ± 0.25 kcal/mol | 0.874 ± 0.26 kcal/mol | 0.146 ± 0.11 kcal/mol
SAGGSMQSVTSYDPNGVTYTTEFLPDEDVVTYTKTTDGTVTTTKVERLDEDGVPVPLSTSTTTLGGSAGGSA [r2_60_JUSTAS] | -0.217 ± 0.29 kcal/mol | 0.107 ± 0.16 kcal/mol | 0.208 ± 0.085 kcal/mol
SAGGSMRFKIEDINIGIIPHPPGWLLIPITVKVKFEEPDPDNGEPKTVEHEFPIMIMMPKDDLDDLSAGGSA [r2_184_TrROS] | 2.68 ± 0.045 kcal/mol | 2.44 ± 0.14 kcal/mol | 2.01 ± 0.072 kcal/mol
SAGGSMSESEVVEVTVGGKPVTITVHREDNRYSAEVTLPPGVRVVLPFGGPESPEKAVEEAVRALESAGGSA [r2_92_JUSTAS] | 0.508 ± 0.046 kcal/mol | 0.425 ± 0.065 kcal/mol | 0.352 ± 0.036 kcal/mol
SAGGSMSIPLKTEEDVKKAVEYIKQKLLEEGAPEGLKIDKVEVTKLPDGTYKITITFPNKTFELVGSAGGSA [r2_120_JUSTAS] | 2.64 ± 0.047 kcal/mol | 2.64 ± 0.079 kcal/mol | 2.56 ± 0.052 kcal/mol
SAGGSMSPALNKKLDVEEITADEEEAKKIAKESKKPVIVTLPDGTVLRFNTDGSVTEYPLPPPELLSAGGSA [r2_34_JUSTAS] | 1.12 ± 0.12 kcal/mol | 0.958 ± 0.12 kcal/mol | 0.443 ± 0.07 kcal/mol
SAGGSMSTSTLVRREIASVDPETGLRVVRVEVEEVDYGFDPKTGTVLGVSPVSPVSESVLLLPADAPPESAG [r5_903_JUSTAS] | -0.175 ± 0.22 kcal/mol | -0.286 ± 0.23 kcal/mol | -0.652 ± 0.23 kcal/mol

Sequence | folding stability dG unfold [1] | folding stability dG unfold [2] | folding stability dG unfold [3]
SAGGSMSVEVEVLAKVKLPNGEEVTFPVRVTYNPETGEVTVEIDLPKEVFERLKELYPDGIIAPEPSAGGSA [r2_409_TrMRF] | 3.5 ± 0.078 kcal/mol | 3.27 ± 0.048 kcal/mol | 2.79 ± 0.11 kcal/mol
SAGGSMTFKAEVTPLDTFPLFDANGKPVAEVKVYTATIEFPDGSRVEIRGVEVGDELYILEIRPLDSAGGSA [r2_158_TrMRF] | 2.32 ± 0.13 kcal/mol | 2.16 ± 0.13 kcal/mol | 1.54 ± 0.084 kcal/mol
SAGGSMTISYDPSTGTVTITDPTVPLNTPRSITITFPGGETFTATLTPLPDNSATATYTVVPTAGASAGGSA [r2_89_JUSTAS] | 1.09 ± 0.1 kcal/mol | 1.23 ± 0.16 kcal/mol | 1.26 ± 0.036 kcal/mol
SAGGSMTTTTVTVTDPAGNTTTYTFPSSVPLEEIVEAVSKALGRPVTVLSVTTDPSGTTTVTLAVPGSAGGS [r8_285_JUSTAS] | 5.131 ± 0.047 kcal/mol | 5.17 ± 0.13 kcal/mol | 4.33 ± 0.3 kcal/mol
SAGGSMTVETSISRLPDGTYTVTVTFTLKNPDGSPVGTITIPVTMSPEVLAKTPLETVVAEAVAAASAGGSA [r2_421_JUSTAS] | 3.48 ± 0.048 kcal/mol | 3.09 ± 0.077 kcal/mol | 2.44 ± 0.056 kcal/mol
SAGGSMVEVIVIDKDGKEHKILIPPELKPEEVAEKVKKFLEDEGYEVESIEIEELPEGFSKVIVNASAGGSA [r2_148_TrMRF] | 1.45 ± 0.18 kcal/mol | 1.68 ± 0.21 kcal/mol | 2.05 ± 0.078 kcal/mol
SAGGSMVKLKVTSVSREGNYLTVTAELGNLIVEIRFDEGTDRFEVKVSEKPLVLGEEEIEELAKASSAGGSA [r2_482_TrMRF] | 2.38 ± 0.043 kcal/mol | 2.08 ± 0.072 kcal/mol | 1.52 ± 0.064 kcal/mol
SAGGSMVVTVSTDSTSEPTTVITITIPPELGNLTDEEKKAIAEEIAKKYPNTKFTFTPTTITITRKSAGGSA [r2_256_JUSTAS] | 2.81 ± 0.054 kcal/mol | 2.37 ± 0.23 kcal/mol | 1.77 ± 0.047 kcal/mol
SAGGSMVVVVKLKDGKKIELSVEELKKLAEELGLEPEEEDKEERLERIAKALAEKLGLEVEKVEVLSAGGSA [r2_83_TrROS_Hall] | 2.74 ± 0.22 kcal/mol | 3.33 ± 0.35 kcal/mol | 4.09 ± 0.29 kcal/mol
SAGGSNFKPLEAEIYRNPDGKDVVQIMITFPDPNGKPFTVNIWIYPDGKIKISVYYNGKKEEIEIPSAGGSA [r2_182_TrROS] | 3.57 ± 0.12 kcal/mol | 2.96 ± 0.18 kcal/mol | 1.95 ± 0.13 kcal/mol
SAGGSPEEIANEVKEKILKELPPGVKVEVSVEVTPEGATVTVKVPEGKEYTVKVEGDKIVEIKLLKKSAGGS [r8_287_JUSTAS] | 1.92 ± 0.057 kcal/mol | 1.51 ± 0.28 kcal/mol | 0.921 ± 0.081 kcal/mol
SAGGSPERSAEELAEELAERIRELLREEAASFELPLHVHIVVPDPEGRRREFDVEVHVRVEVPEDARSAGGS [r16_550_TrMRF] | 1.14 ± 0.034 kcal/mol | 1.05 ± 0.054 kcal/mol | 0.898 ± 0.025 kcal/mol
SAGGSPETKTISFKYPGNGMRIMVQVERDPADGKKKITINMENNPYMAERAKKALEELGLPVEIHPSAGGSA [r2_30_TrROS] | 1.14 ± 0.12 kcal/mol | 1.32 ± 0.12 kcal/mol | 1.38 ± 0.13 kcal/mol
SAGGSPIISTEKSSSGVTTITFPDGTVVTEVTTPLPDGTVLTTTTVTPPNAPVSTTTTTDPVPPGLPSAGGS [r16_211_JUSTAS] | 0.702 ± 0.027 kcal/mol | 0.767 ± 0.062 kcal/mol | 0.775 ± 0.062 kcal/mol
SAGGSPLLVLHIRLRRPGEEREIVIPSDLIEDMPLEEIEEILRALPWIDEAEIELEEFPPLRPDELSAGGSA [r2_282_TrMRF] | 1.98 ± 0.11 kcal/mol | 1.67 ± 0.089 kcal/mol | 1.21 ± 0.026 kcal/mol
